Assay results taken from patent publication US20260167699A1 (Chugai, published 2026).
Values belong to the binder of their own block, whether it stands above or below them.

Biological target: T1, FcγRIIIa (human, UniProt P08637 17-208)
T1 construct: extracellular domain; also called 3a; FcγRIIIa extracellular domain
Assay: SPR (Biacore);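 further: antibody variants captured on an SPR sensor chip, with FcγRIIIa passed over as analyte in HBS-EP+ buffer at 25 °C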

T1 sequence (P08637 other isoform, or with tags, fused parts or gaps): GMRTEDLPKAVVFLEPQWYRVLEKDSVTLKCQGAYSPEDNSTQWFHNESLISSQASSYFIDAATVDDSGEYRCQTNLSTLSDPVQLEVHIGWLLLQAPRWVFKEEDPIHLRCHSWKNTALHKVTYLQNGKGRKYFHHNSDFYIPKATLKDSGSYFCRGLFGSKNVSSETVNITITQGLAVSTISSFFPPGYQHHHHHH

He/Con 3a: 70.2 % of GpH7-A5/GpH7-B3/GpL16-k0
B1: GpH7-A5/GpH7-B3 variant L328_15Y/GpL16-k0 (antibody, human IgG1, kappa)
heavy 1: not shown
heavy 2: not shown
light: DIVMTQSPLSLPVTPGEPASISCQASESLVHSNRNTYLHWYLQKPGQSPQLLIYKVSNRFSGVPDRFSGSGSGTDFTLKISRVEAEDVGVYYCSQNTHVPPTFGQGTKVEIERTVAAPSVFIFPPSDEQLKSGTASVVCLLNNFYPREAKVQWKVDNALQSGNSQESVTEQDSKDSTYSLSSTLTLSKADYEKHKVYACEVTHQGLSSPVTKSFNRGEC
notes: copies: 1 + 1 + 2

He/Con 3a: 82.5 % of GpH7-A5/GpH7-B3/GpL16-k0
B2: GpH7-A5/GpH7-B3 variant P331_02A/GpL16-k0 (antibody, human IgG1, kappa)
heavy 1: not shown
heavy 2: not shown
light: B1 light
notes: copies: 1 + 1 + 2

He/Con 3a: 66.9 % of GpH7-A5/GpH7-B3/GpL16-k0
B3: GpH7-A5/GpH7-B3 variant P331_03V/GpL16-k0 (antibody, human IgG1, kappa)
heavy 1: not shown
heavy 2: not shown
light: B1 light
notes: copies: 1 + 1 + 2

He/Con 3a: 64.8 % of GpH7-A5/GpH7-B3/GpL16-k0
B4: GpH7-A5/GpH7-B3 variant P331_12R/GpL16-k0 (antibody, human IgG1, kappa)
heavy 1: not shown
heavy 2: not shown
light: B1 light
notes: copies: 1 + 1 + 2

He/Con 3a: 80.9 % of GpH7-A5/GpH7-B3/GpL16-k0
B5: GpH7-A5/GpH7-B3 variant P331_13S/GpL16-k0 (antibody, human IgG1, kappa)
heavy 1: not shown
heavy 2: not shown
light: B1 light
notes: copies: 1 + 1 + 2

He/Con 3a: 94 % of GpH7-A5/GpH7-B3/GpL16-k0
B6: GpH7-A5/GpH7-B3 variant P271_18N/GpL16-k0 (antibody, human IgG1, kappa)
heavy 1: not shown
heavy 2: not shown
light: B1 light
notes: copies: 1 + 1 + 2

He/Con 3a: 65.6 % of GpH7-A5/GpH7-B3/GpL16-k0
B7: GpH7-A5/GpH7-B3 variant P271_04F/GpL16-k0 (antibody, human IgG1, kappa)
heavy 1: not shown
heavy 2: not shown
light: B1 light
notes: copies: 1 + 1 + 2

He/Con 3a: 83.4 % of GpH7-A5/GpH7-B3/GpL16-k0
B8: GpH7-A5/GpH7-B3 variant L328_19Q/GpL16-k0 (antibody, human IgG1, kappa)
heavy 1: not shown
heavy 2: not shown
light: B1 light
notes: copies: 1 + 1 + 2

He/Con 3a: 51.1 % of GpH7-A5/GpH7-B3/GpL16-k0
B9: GpH7-A5/GpH7-B3 variant L328_18N/GpL16-k0 (antibody, human IgG1, kappa)
heavy 1: not shown
heavy 2: not shown
light: B1 light
notes: copies: 1 + 1 + 2

He/Con 3a: 60.4 % of GpH7-A5/GpH7-B3/GpL16-k0
B10: GpH7-A5/GpH7-B3 variant P331_07I/GpL16-k0 (antibody, human IgG1, kappa)
heavy 1: not shown
heavy 2: not shown
light: B1 light
notes: copies: 1 + 1 + 2

He/Con 3a: 98.9 % of GpH7-A5/GpH7-B3/GpL16-k0
B11: GpH7-A5/GpH7-B3 variant P238_10E/GpL16-k0 (antibody, human IgG1, kappa)
heavy 1: not shown
heavy 2: not shown
light: B1 light
notes: copies: 1 + 1 + 2

He/Con 3a: 66 % of GpH7-A5/GpH7-B3/GpL16-k0
B12: GpH7-A5/GpH7-B3 variant P331_08L/GpL16-k0 (antibody, human IgG1, kappa)
heavy 1: not shown
heavy 2: not shown
light: B1 light
notes: copies: 1 + 1 + 2

He/Con 3a: 55.9 % of GpH7-A5/GpH7-B3/GpL16-k0
B13: GpH7-A5/GpH7-B3 variant L328_16H/GpL16-k0 (antibody, human IgG1, kappa)
heavy 1: not shown
heavy 2: not shown
light: B1 light
notes: copies: 1 + 1 + 2

He/Con 3a: 52.5 % of GpH7-A5/GpH7-B3/GpL16-k0
B14: GpH7-A5/GpH7-B3 variant P329_09D/GpL16-k0 (antibody, human IgG1, kappa)
heavy 1: not shown
heavy 2: not shown
light: B1 light
notes: copies: 1 + 1 + 2

He/Con 3a: 52.7 % of GpH7-A5/GpH7-B3/GpL16-k0
B15: GpH7-A5/GpH7-B3 variant P329_10E/GpL16-k0 (antibody, human IgG1, kappa)
heavy 1: not shown
heavy 2: not shown
light: B1 light
notes: copies: 1 + 1 + 2

He/Con 3a: 68.4 % of GpH7-A5/GpH7-B3/GpL16-k0
B16: GpH7-A5/GpH7-B3 variant P331_06M/GpL16-k0 (antibody, human IgG1, kappa)
heavy 1: not shown
heavy 2: not shown
light: B1 light
notes: copies: 1 + 1 + 2

He/Con 3a: 70.3 % of GpH7-A5/GpH7-B3/GpL16-k0
B17: GpH7-A5/GpH7-B3 variant P271_16H/GpL16-k0 (antibody, human IgG1, kappa)
heavy 1: not shown
heavy 2: not shown
light: B1 light
notes: copies: 1 + 1 + 2

He/Con 3a: 70.7 % of GpH7-A5/GpH7-B3/GpL16-k0
B18: GpH7-A5/GpH7-B3 variant P331_04F/GpL16-k0 (antibody, human IgG1, kappa)
heavy 1: not shown
heavy 2: not shown
light: B1 light
notes: copies: 1 + 1 + 2

He/Con 3a: 59.2 % of GpH7-A5/GpH7-B3/GpL16-k0
B19: GpH7-A5/GpH7-B3 variant P271_14T/GpL16-k0 (antibody, human IgG1, kappa)
heavy 1: not shown
heavy 2: not shown
light: B1 light
notes: copies: 1 + 1 + 2

He/Con 3a: 97.7 % of GpH7-A5/GpH7-B3/GpL16-k0
B20: GpH7-A5/GpH7-B3 variant P271_09D/GpL16-k0 (antibody, human IgG1, kappa)
heavy 1: not shown
heavy 2: not shown
light: B1 light
notes: copies: 1 + 1 + 2

He/Con 3a: 92.5 % of GpH7-A5/GpH7-B3/GpL16-k0
B21: GpH7-A5/GpH7-B3 variant P271_11K/GpL16-k0 (antibody, human IgG1, kappa)
heavy 1: not shown
heavy 2: not shown
light: B1 light
notes: copies: 1 + 1 + 2

He/Con 3a: 119 % of GpH7-A5/GpH7-B3/GpL16-k0
B22: GpH7-A5/GpH7-B3 variant P271_01G/GpL16-k0 (antibody, human IgG1, kappa)
heavy 1: not shown
heavy 2: not shown
light: B1 light
notes: copies: 1 + 1 + 2

He/Con 3a: 74 % of GpH7-A5/GpH7-B3/GpL16-k0
B23: GpH7-A5/GpH7-B3 variant P271_06M/GpL16-k0 (antibody, human IgG1, kappa)
heavy 1: not shown
heavy 2: not shown
light: B1 light
notes: copies: 1 + 1 + 2

He/Con 3a: 55.2 % of GpH7-A5/GpH7-B3/GpL16-k0
B24: GpH7-A5/GpH7-B3 variant P329_02A/GpL16-k0 (antibody, human IgG1, kappa)
heavy 1: not shown
heavy 2: not shown
light: B1 light
notes: copies: 1 + 1 + 2

He/Con 3a: 62.7 % of GpH7-A5/GpH7-B3/GpL16-k0
B25: GpH7-A5/GpH7-B3 variant P271_15Y/GpL16-k0 (antibody, human IgG1, kappa)
heavy 1: not shown
heavy 2: not shown
light: B1 light
notes: copies: 1 + 1 + 2

He/Con 3a: 83.7 % of GpH7-A5/GpH7-B3/GpL16-k0
B26: GpH7-A5/GpH7-B3 variant P271_02A/GpL16-k0 (antibody, human IgG1, kappa)
heavy 1: not shown
heavy 2: not shown
light: B1 light
notes: copies: 1 + 1 + 2

He/Con 3a: 68.7 % of GpH7-A5/GpH7-B3/GpL16-k0
B27: GpH7-A5/GpH7-B3 variant P331_10E/GpL16-k0 (antibody, human IgG1, kappa)
heavy 1: not shown
heavy 2: not shown
light: B1 light
notes: copies: 1 + 1 + 2

He/Con 3a: 84.6 % of GpH7-A5/GpH7-B3/GpL16-k0
B28: GpH7-A5/GpH7-B3 variant P271_19Q/GpL16-k0 (antibody, human IgG1, kappa)
heavy 1: not shown
heavy 2: not shown
light: B1 light
notes: copies: 1 + 1 + 2

He/Con 3a: 73.5 % of GpH7-A5/GpH7-B3/GpL16-k0
B29: GpH7-A5/GpH7-B3 variant P271_03V/GpL16-k0 (antibody, human IgG1, kappa)
heavy 1: not shown
heavy 2: not shown
light: B1 light
notes: copies: 1 + 1 + 2

He/Con 3a: 68 % of GpH7-A5/GpH7-B3/GpL16-k0
B30: GpH7-A5/GpH7-B3 variant N325_16H/GpL16-k0 (antibody, human IgG1, kappa)
heavy 1: not shown
heavy 2: not shown
light: B1 light
notes: copies: 1 + 1 + 2

He/Con 3a: 53 % of GpH7-A5/GpH7-B3/GpL16-k0
B31: GpH7-A5/GpH7-B3 variant N325_09D/GpL16-k0 (antibody, human IgG1, kappa)
heavy 1: not shown
heavy 2: not shown
light: B1 light
notes: copies: 1 + 1 + 2

He/Con 3a: 71.9 % of GpH7-A5/GpH7-B3/GpL16-k0
B32: GpH7-A5/GpH7-B3 variant N325_13S/GpL16-k0 (antibody, human IgG1, kappa)
heavy 1: not shown
heavy 2: not shown
light: B1 light
notes: copies: 1 + 1 + 2

He/Con 3a: 61.8 % of GpH7-A5/GpH7-B3/GpL16-k0
B33: GpH7-A5/GpH7-B3 variant P331_11K/GpL16-k0 (antibody, human IgG1, kappa)
heavy 1: not shown
heavy 2: not shown
light: B1 light
notes: copies: 1 + 1 + 2

He/Con 3a: 74.5 % of GpH7-A5/GpH7-B3/GpL16-k0
B34: GpH7-A5/GpH7-B3 variant P271_08L/GpL16-k0 (antibody, human IgG1, kappa)
heavy 1: not shown
heavy 2: not shown
light: B1 light
notes: copies: 1 + 1 + 2

He/Con 3a: 71.6 % of GpH7-A5/GpH7-B3/GpL16-k0
B35: GpH7-A5/GpH7-B3 variant P331_09D/GpL16-k0 (antibody, human IgG1, kappa)
heavy 1: not shown
heavy 2: not shown
light: B1 light
notes: copies: 1 + 1 + 2

He/Con 3a: 98.2 % of GpH7-A5/GpH7-B3/GpL16-k0
B36: GpH7-A5/GpH7-B3 variant P271_10E/GpL16-k0 (antibody, human IgG1, kappa)
heavy 1: not shown
heavy 2: not shown
light: B1 light
notes: copies: 1 + 1 + 2

He/Con 3a: 80.2 % of GpH7-A5/GpH7-B3/GpL16-k0
B37: GpH7-A5/GpH7-B3 variant P271_07I/GpL16-k0 (antibody, human IgG1, kappa)
heavy 1: not shown
heavy 2: not shown
light: B1 light
notes: copies: 1 + 1 + 2

He/Con 3a: 61 % of GpH7-A5/GpH7-B3/GpL16-k0
B38: GpH7-A5/GpH7-B3 variant P238_15Y/GpL16-k0 (antibody, human IgG1, kappa)
heavy 1: not shown
heavy 2: not shown
light: B1 light
notes: copies: 1 + 1 + 2

He/Con 3a: 100 % of GpH7-A5/GpH7-B3/GpL16-k0
B39: GpH7-A5/GpH7-B3 variant P238_09D/GpL16-k0 (antibody, human IgG1, kappa)
heavy 1: not shown
heavy 2: not shown
light: B1 light
notes: copies: 1 + 1 + 2

He/Con 3a: 77.8 % of GpH7-A5/GpH7-B3/GpL16-k0
B40: GpH7-A5/GpH7-B3 variant P271_20W/GpL16-k0 (antibody, human IgG1, kappa)
heavy 1: not shown
heavy 2: not shown
light: B1 light
notes: copies: 1 + 1 + 2

He/Con 3a: 52.7 % of GpH7-A5/GpH7-B3/GpL16-k0
B41: GpH7-A5/GpH7-B3 variant P238_19Q/GpL16-k0 (antibody, human IgG1, kappa)
heavy 1: not shown
heavy 2: not shown
light: B1 light
notes: copies: 1 + 1 + 2

He/Con 3a: 79.8 % of GpH7-A5/GpH7-B3/GpL16-k0
B42: GpH7-A5/GpH7-B3 variant P271_13S/GpL16-k0 (antibody, human IgG1, kappa)
heavy 1: not shown
heavy 2: not shown
light: B1 light
notes: copies: 1 + 1 + 2

He/Con 3a: 71.3 % of GpH7-A5/GpH7-B3/GpL16-k0
B43: GpH7-A5/GpH7-B3 variant P238_08L/GpL16-k0 (antibody, human IgG1, kappa)
heavy 1: not shown
heavy 2: not shown
light: B1 light
notes: copies: 1 + 1 + 2

He/Con 3a: 87.6 % of GpH7-A5/GpH7-B3/GpL16-k0
B44: GpH7-A5/GpH7-B3 variant P271_12R/GpL16-k0 (antibody, human IgG1, kappa)
heavy 1: not shown
heavy 2: not shown
light: B1 light
notes: copies: 1 + 1 + 2
